According to publication PMC7102968:

Molecular target: TetR-Y42A Y42A;C68S;C88N;C121T;C144S;internal_change (UniProt P04483)
Test: ITC
Conditions: ITC: 20 mM potassium phosphate pH 7.4, 50 mM NaCl, 25 C; EMSA: 50 mM Tris-HCl pH 8.0, 10 mM MgCl2, 25 mM NaCl, 25 ug/ml yeast tRNA, room temperature; SEC …

## GGCCGGAGAAUGUUAUGGCGCGAAAGCGCAGAGAAAACCGGUC [TetR-binding aptamer K1]
  Kd: 13.9 µM
